# Laboratory results reported in publication PMC11718236, “The Psu protein of phage satellite P4 inhibits transcription termination factor ρ by forced hyper-oligomerization” (Nature Communications, 2023).
# Tests used:
# [1] = biological target: the molecule itself; assay: cryo-EM structure; ρ^P167L-ATPγS-Psu complexes; 10 mM TRIS-HCl pH 8.0, 120 mM KOAc, 5 mM Mg(OAc)2, 5 µM ZnCl2; 1 mM ATPγS; single-particle analysis
# [2] = biological target: transcription termination factor ρ (wild type), non-tagged, purified (E. coli, UniProt P0AG30 1-419); assay: cell-based or functional assay
# [3] = biological target: transcription termination factor ρ P167L variant, non-tagged, purified (E. coli, UniProt P0AG30 1-419, P167L); assay: cell-based or functional assay
# [4] = biological target: T1, Rho (transcription termination factor ρ, wt);Psu (polarity suppression protein) (Escherichia coli;phage satellite P4, UniProt P0AG30;P05460 1-419;1-190, |); assay: fluorescence anisotropy; SBS; IC50 of Psu as inhibitor (very weak inhibition); dC15-blocked PBS; 2 mM ADP-BeF3; 20 mM HEPES pH 7.5, 150 mM KCl, 5% glycerol, 5 mM MgCl2, 0.5 mM TCEP; SBS assays with 10 uM unlabeled dC15 and 2 mM ADP-BeF3; probe 5 uM dC15-FAM or 2 uM rU12-FAM; temperature not stated; conditions: protein: recombinant;recombinant; tags: none;none; chain copies: 6;2; label: FAM (fluorescein); single strand
# [5] = biological target: T2, Rho P167L;Psu (polarity suppression protein) (Escherichia coli;phage satellite P4, UniProt P0AG30;P05460 1-419;1-190, P167L|); assay: fluorescence anisotropy; Psu added to pre-formed ρP167L-dC15-rU12-FAM complex; RNA not displaced; ADP-BeF3; 20 mM HEPES pH 7.5, 150 mM KCl, 5% glycerol, 5 mM MgCl2, 0.5 mM TCEP; SBS assays with 10 uM unlabeled dC15 and 2 mM ADP-BeF3; probe 5 uM dC15-FAM or 2 uM rU12-FAM; temperature not stated; conditions: protein: recombinant;recombinant; tags: none;none; chain copies: 6;2; label: FAM (fluorescein); single strand
# [6] = biological target: T1, Rho (transcription termination factor …); assay: fluorescence anisotropy; PBS; Psu up to 30 uM dimer has no effect; ADP-BeF3; 20 mM HEPES pH 7.5, 150 mM KCl, 5% glycerol, 5 mM MgCl2, 0.5 mM TCEP; SBS assays with 10 uM unlabeled dC15 and 2 mM ADP-BeF3; probe 5 uM dC15-FAM or 2 uM rU12-FAM; temperature not stated; conditions: protein: recombinant;recombinant; tags: none;none; chain copies: 6;2; label: FAM (fluorescein); single strand
# [7] = biological target: T2, Rho P167L;Psu (polarity suppression …); assay: as above; conditions: protein: recombinant;recombinant; tags: none;none; chain copies: 6;2; label: FAM (fluorescein); single strand
binder,measurement,setting,value
"phage satellite P4 polarity suppression protein Psu (wild type), purified (natural protein, polarity suppression protein Psu of phage satellite P4; No tag is told for the purified protein; also called Psu^wt; wt Psu; source: E. coli BL21 RIL, purified (ammonium sulfate precipitation, heparin, MonoQ, MonoS, Superdex 75 SEC)) MESTALQQAFDTCQNNKAAWLQRKNELAAAEQEYLRLLSGEGRNVSRLDELRNIIEVRKWQVNQAAGRYIRSHEAVQHISIRDRLNDFMQQHGTALAAALAPELMGYSELTAIARNCAIQRATDALREALLSWLAKGEKINYSAQDSDILTTIGFRPDVASVDDSREKFTPAQNMIFSRKSAQLASRQSV",stoichiometry N,[1],2
same,"IC50 of Psu for inhibition of rU12-FAM binding at the SBS of ρ^wt (fluorescence anisotropy, with ADP-BeF3 and dC15)",[2],299 µM
same,"IC50 of inhibition of the RNA-stimulated ATPase activity of ρ^wt by Psu (TLC, 1 h, 37 °C)",[2],0.9 µM
same,decrease of the ρ^wt ATPase rate at Psu dimer:ρ hexamer 10:1 and 50:1 (1.3-fold and 1.6-fold),[2],1.6 fold
same,"IC50 of Psu for inhibition of rU12-FAM binding at the SBS of ρ^P167L (fluorescence anisotropy, with ADP-BeF3 and dC15)",[3],2.8 µM
same,"IC50 of inhibition of the RNA-stimulated ATPase activity of ρ^P167L by Psu (TLC, 1 h, 37 °C)",[3],0.8 µM
same,decrease of the ρ^P167L ATPase rate at Psu dimer:ρ hexamer 10:1 and 50:1 (1.5-fold and 4-fold),[3],4 fold
"Psu R43A variant, purified (natural protein, phage satellite P4) MESTALQQAFDTCQNNKAAWLQRKNELAAAEQEYLRLLSGEGANVSRLDELRNIIEVRKWQVNQAAGRYIRSHEAVQHISIRDRLNDFMQQHGTALAAALAPELMGYSELTAIARNCAIQRATDALREALLSWLAKGEKINYSAQDSDILTTIGFRPDVASVDDSREKFTPAQNMIFSRKSAQLASRQSV","IC50 of inhibition of the RNA-stimulated ATPase activity of ρ^P167L by Psu^R43A (TLC, 1 h, 37 °C)",[3],12.9 µM
UUUUUUUUUUUU (ssRNA) [rU12-FAM],IC50,[4],299 µM
same,binding result,[5],binds
CCCCCCCCCCCCCCC (ssDNA) [dC15-FAM],binding result,[6],binds
same,binding result,[7],binds
